Sequences and labels used below:
B1: HAKA (antibody, human IgG1, V domains shown)
VH: EVQLVESGGGLVQPGGSLRLSCAASGFSLTIYGAHWVRQAPGKGLEWVSVIWAGGSTNYNSALMSRFTISKDNSKNTVYLQMNSLRAEDTAVYYCARDGSSPYYYSMEYWGQGTTVTVSS
VL: EIVLTQSPATLSLSPGERATLSCSATSSVSYMHWFQQKPGQAPRLLIYSTSNLASGIPARFSGSGSGTDFTLTISSLEPEDFAVYYCQQRSSYPFTFGPGTKLDIK
notes: human IgG1/kappa
B2: HBKD (antibody, human IgG1, V domains shown)
VH: B1 VH with A24V, V48L, S49G, F67L, T68S
VL: B1 VL with L46W
notes: human IgG1/kappa
B3: HCKE (antibody, human IgG1, V domains shown)
VH: B1 VH with A24V
VL: B1 VL with I57V
notes: human IgG1/kappa
B4: HAKC (antibody, human IgG1, V domains shown)
VH: B1 VH
VL: B1 VL with V3I
notes: human IgG1/kappa
B5: HAKF (antibody, human IgG1, V domains shown)
VH: B1 VH
VL: B1 VL with F70Y
notes: human IgG1/kappa
B6: HCKB (antibody, human IgG1, V domains shown)
VH: B1 VH with A24V
VL: B1 VL with V3I, L46W, I57V, F70Y
notes: human IgG1/kappa
B7: HCKG (antibody, human IgG1, V domains shown)
VH: B1 VH with A24V
VL: B1 VL with F35Y
notes: human IgG1/kappa
B8: HAKD (antibody, human IgG1, V domains shown)
VH: B1 VH
VL: B1 VL with L46W
notes: human IgG1/kappa
B9: HCKFmut (antibody, human IgG1, V domains shown)
VH: B1 VH with A24V
VL: B1 VL with F70Y, F95Y
notes: human IgG1/kappa
B10: HCKD (antibody, human IgG1, V domains shown)
VH: B1 VH with A24V
VL: B1 VL with L46W
notes: human IgG1/kappa
B11: HCKA (antibody, human IgG1, V domains shown)
VH: B1 VH with A24V
VL: B1 VL
notes: human IgG1/kappa
B12: HBKG (antibody, human IgG1, V domains shown)
VH: B1 VH with A24V, V48L, S49G, F67L, T68S
VL: B1 VL with F35Y
notes: human IgG1/kappa
B13: HBKA (antibody, human IgG1, V domains shown)
VH: B1 VH with A24V, V48L, S49G, F67L, T68S
VL: B1 VL
notes: human IgG1/kappa
B14: HDKA (antibody, human IgG1, V domains shown)
VH: B1 VH with V48L
VL: B1 VL
notes: human IgG1/kappa
B15: HAKE (antibody, human IgG1, V domains shown)
VH: B1 VH
VL: B1 VL with I57V
notes: human IgG1/kappa
B16: HAKG (antibody, human IgG1, V domains shown)
VH: B1 VH
VL: B1 VL with F35Y
notes: human IgG1/kappa
B17: HBKF (antibody, human IgG1, V domains shown)
VH: B1 VH with A24V, V48L, S49G, F67L, T68S
VL: B1 VL with F70Y
notes: human IgG1/kappa
B18: HCKF (antibody, human IgG1, V domains shown)
VH: B1 VH with A24V
VL: B1 VL with F70Y
notes: human IgG1/kappa
B19: HAKFmut (antibody, human IgG1, V domains shown)
VH: B1 VH
VL: B1 VL with F70Y, F95Y
notes: human IgG1/kappa
B20: HDKB (antibody, human IgG1, V domains shown)
VH: B1 VH with V48L
VL: B1 VL with V3I, L46W, I57V, F70Y
notes: human IgG1/kappa
B21: HBKE (antibody, human IgG1, V domains shown)
VH: B1 VH with A24V, V48L, S49G, F67L, T68S
VL: B1 VL with I57V
notes: human IgG1/kappa
B22: HBKFmut (antibody, human IgG1, V domains shown)
VH: B1 VH with A24V, V48L, S49G, F67L, T68S
VL: B1 VL with F70Y, F95Y
notes: human IgG1/kappa
B23: HBKB (antibody, human IgG1, V domains shown)
VH: B1 VH with A24V, V48L, S49G, F67L, T68S
VL: B1 VL with V3I, L46W, I57V, F70Y
notes: human IgG1/kappa
B24: HCKC (antibody, human IgG1, V domains shown)
VH: B1 VH with A24V
VL: B1 VL with V3I
notes: human IgG1/kappa
B25: HDKC (antibody, human IgG1, V domains shown)
VH: B1 VH with V48L
VL: B1 VL with V3I
notes: human IgG1/kappa
B26: HAKB (antibody, human IgG1, V domains shown)
VH: B1 VH
VL: B1 VL with V3I, L46W, I57V, F70Y
notes: human IgG1/kappa
B27: HBKC (antibody, human IgG1, V domains shown)
VH: B1 VH with A24V, V48L, S49G, F67L, T68S
VL: B1 VL with V3I
notes: human IgG1/kappa
B28: mouse 2C4 antibody (antibody, mouse IgG1, kappa)
heavy: QVQLKRASGPGLVAPSQSLSITCTVSGFSLTIYGAHWVRQPPGKGLEWLGVIWAGGSTNYNSALMSRLSISKDNSKSQVFLKINSLQTDDTALYYCARDGSSPYYYSMEYWGQGTSVTVSSAKTTPPSVYPLAPGSAAQTNSMVTLGCLVKGYFPEPVTVTWNSGSLSSGVHTFPAVLESDLYTLSSSVTVPSSPRPSETVTCNVAHPASSTKVDKKIVPRDCGCKPCICTVPEVSSVFIFPPKPKDVLTITLTPKVTCVVVDISKDDPEVQFSWFVDDVEVHTAQTQPREEQFNSTFRSVSELPIMHQDWLNGKEFKCRVNSAAFPAPIEKTISKTKGRPKAPQVYTIPPPKEQMAKDKVSLTCMITDFFPEDITVEWQWNGQPAENYKNTQPIMNTNGSYFVYSKLNVQKSNWEAGNTFTCSVLHEGLHNHHTEKSLSHSPG
light: EIILTQSPAIMSASPGEKVSITCSATSSVSYMHWFQQKPGTSPKLWIYSTSNLASGVPVRFSGSGSGTSYSLTISRMEAEDAATYYCQQRSSYPFTFGSGTKLEIKADAAPTVSIFPPSSEQLTSGGASVVCFLNNFYPKDINVKWKIDGSERQNGVLNSWTDQDSKDSTYSMSSTLTLTKDEYERHNSYTCEATHKTSTSPIVKSFNRNEC
notes: murine IgG1/kappa; also called mo2C4; m2C4

Changes are numbered by the printed parent chain. Where “and” joins values, the source holds several entries; their conditions need not be identical. Equal values may be shown once.

In the assay the target is T1, recombinant human Siglec-8 extracellular domain (ECD) (human, UniProt Q9NYZ4 17-363).
T1 construct: extracellular domain; also called Siglec-8 ECD; full Siglec-8 ECD
T1 sequence (Q9NYZ4 17-363): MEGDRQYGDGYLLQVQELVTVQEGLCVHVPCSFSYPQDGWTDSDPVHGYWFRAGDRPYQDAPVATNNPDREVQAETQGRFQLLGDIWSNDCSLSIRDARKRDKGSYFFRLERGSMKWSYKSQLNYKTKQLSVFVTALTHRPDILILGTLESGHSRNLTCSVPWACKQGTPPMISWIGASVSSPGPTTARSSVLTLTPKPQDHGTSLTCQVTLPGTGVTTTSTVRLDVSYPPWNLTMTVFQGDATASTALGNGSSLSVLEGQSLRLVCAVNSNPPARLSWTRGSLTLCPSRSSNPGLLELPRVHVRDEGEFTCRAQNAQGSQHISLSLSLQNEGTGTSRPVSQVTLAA
The assay can be described thus: ELISA, coated Siglec-8 ECD. As to the method:
Binding of recombinant human Siglec-8 extracellular domain (ECD) by chimeric 2E2 and chimeric 2C4 IgG1K antibodies was measured by ELISA. […] Three-fold serial dilutions of a chimeric antibody (ch2E2 or ch2C4) or mouse antibody (m2E2 or m2C4) in 0.2% BSA/TBS (starting concentration was 5000 ng/mL) was added to each coated well. The plate was incubated for 2 hours at room temperature and the wells were subsequently washed before addition of goat-anti-human Fc peroxidase conjugate (1:10000 dilution) or anti-mouse Fc peroxidase conjugate (1:30000 dilution) diluted in 0.2% BSA/TBS solution. The plate was incubated for 45 minutes at room temperature, followed by washing and addition of 30 μL K-blue HRP substrate (SkyBio Ltd) to each well. After incubation at room temperature for 15 minutes, the reaction was stopped by adding 10 μL of Red Stop solution (SkyBio Ltd) to each well. The optical density or the experimental samples was read at 650 nm using the ELISA reader PHERAStar FS (BMG Labtech).
The fully humanized antibody heavy and light chains were combined and compared with the chimeric antibody to determine if replacing the 4 Å and canonical framework residues and interface residues was sufficient to successfully humanize 2E2. Expi293 cells were co-transfected with combinations of different humanized light chain vectors in association with different humanized heavy chain vectors. Siglec-8 antigen was used to measure antibody binding by ELISA as described in Example 1.
In general terms: An ELISA detects its analyte on a solid surface through an enzyme-linked reagent.
With B1, the EC50 (as a rule, the concentration needed to bring the measured effect to its halfway point) is 0.085 nM and 0.058 nM.

As for B2, the EC50 was determined as 0.039 nM.

As for B3, the EC50 came out at 0.059 nM.

With B4, the EC50 was determined as 0.066 nM.

As for B5, the EC50 was 0.078 nM and 0.062 nM.

For the molecule B6, the EC50 was 0.065 nM.

Turning to B7, the EC50 worked out at 0.273 nM.

Take B8: the EC50 is 0.058 nM.

Consider B9, for which the EC50 came out at 0.078 nM.

Consider B10, for which the EC50 amounted to 0.049 nM.

With B11, the EC50 worked out at 0.056 nM.

B12: the EC50 was 0.212 nM.

With B13, the EC50 is 0.055 nM and 0.07 nM.

As for B14, the EC50 was found to be 0.067 nM.

B15: the EC50 was 0.052 nM.

Take B16: the EC50 stood at 0.189 nM.

With B17, the EC50 is 0.066 nM and 0.051 nM.

Take B18: the EC50 was 0.05 nM.

For B19, the 50% effective concentration (EC50) is 0.086 nM.

Turning to B20, the EC50 is 0.055 nM.

For B21, the EC50 worked out at 0.061 nM.

As to B22, the EC50 amounted to 0.048 nM.

Consider B23, for which the EC50 is 0.056 nM.

Regarding B24, the EC50 was determined as 0.058 nM.

For B25, the concentration for a half-maximal effect (EC50) was 0.057 nM.

With B26, the EC50 was 0.071 nM.

Consider B27, for which the EC50 worked out at 0.033 nM.

B28: the EC50 came to 0.115 nM.

Source of the values: patent US20200054723A1 (ALLAKOS, published 2020).
